Measurements as given in patent US20100204147A1, “Methods For Delivering Thymosin Beta 4, Analogues, Isoforms and Other Derivatives” (REGENERX BIOPHARMACEUTICALS, INC., priority 2003, published 2010).

Assays:
Aα392-610 sub-fragment = biological target: T1, Aα392-610 sub-fragment (Homo sapiens, UniProt P02671); assay: ELISA and kinetic analysis of incorporation into immobilized Aα392-610 sub-fragment; format: biochemical
T1 construct: (residues Aα221-391 and Aα392-610, respectively); made in house; host or cells: E. coli, pET20b expression vector
T1 sequence (P02671 411-629): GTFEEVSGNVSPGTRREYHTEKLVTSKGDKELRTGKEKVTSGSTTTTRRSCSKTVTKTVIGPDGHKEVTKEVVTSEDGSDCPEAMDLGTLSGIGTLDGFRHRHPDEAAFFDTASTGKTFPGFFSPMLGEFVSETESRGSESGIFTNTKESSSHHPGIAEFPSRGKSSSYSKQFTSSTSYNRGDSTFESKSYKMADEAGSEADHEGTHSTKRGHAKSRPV
Experimental: (§1) The interaction between thymosin β4 and fibrin(ogen) and its fragments in the presence or absence of FXIIIa was studies by ELISA using plastic microliter plates. Wells of microliter plates were coated overnight at […] with fibrinogen and fibrin at 10 μg/mL or with the recombinant fragments of 20 μg/ml, all in 0.1 M NaHCO3 buffer, pH 8.3. Fibrin was made by addition to the wells of a mixture containing 10 μg/mL fibrinogen 1 NIH u/ml thrombin and 400 u/ml aprotinin, followed by overnight incubation at +4° C. The wells were then blocked by incubation with Super Blocker (Pierce) at 37° C. for 1 h. Following washing with TBS containing 0.05% Tween-20 (TBS-Tween), the indicated concentrations of thymosin β4, FXIII, FXIIIa(Thr) and FXIIIa(Ca) were added to the wells and incubated for 2-2.5 h at 37° C. Bound (incorporated) thymosin β4 was detected by the reaction with rabbit anti-thymosin β4 serum and peroxidase-conjugated anti-rabbit IgG. A TMB Microwell Peroxidase Substrase was added to the wells, and the incorporated thymosin β4 was measured spectrophotometrically at 450 nm.
To analyze kinetics of the incorporation of thymosin β4 into different fibrin(ogen) fragments, they were immobilized onto the wells of microliter plates (as described above, except that the concentration of all fragments was 20 μg/mL) and incubated with several concentrations of thymosin β4 in the presence of 10 μg/L thrombin-activated factor XIIIa. The incubation mixtures were inhibited every 15 min during 1 hour of incubation by the addition of iodacetamide to final concentration 10 mM. Incorporated thymosin β4 at each time point was detected with rabbit anti-thymosin β4 serum as described above. The initial rates of the reaction of incorporation (V) at different concentrations of thymosin β4 were determined from the slopes of the reaction time course plots and expressed as tangent α=A450/t (min), where A450 represents absorbance at 450 nm in optical units (o.u) which is proportional to the amount of incorporated thymosin β4. […]

fibrinogen = biological target: T2, fibrinogen (Homo sapiens, UniProt P02671); assay: Solid-phase binding assay (ELISA), immobilized fibrinogen
T2 construct: purchased Enzyme Research Laboratories (South Bend, Ind.)
T2 sequence (P02671 20-644 isoform P02671-2 limits assumed): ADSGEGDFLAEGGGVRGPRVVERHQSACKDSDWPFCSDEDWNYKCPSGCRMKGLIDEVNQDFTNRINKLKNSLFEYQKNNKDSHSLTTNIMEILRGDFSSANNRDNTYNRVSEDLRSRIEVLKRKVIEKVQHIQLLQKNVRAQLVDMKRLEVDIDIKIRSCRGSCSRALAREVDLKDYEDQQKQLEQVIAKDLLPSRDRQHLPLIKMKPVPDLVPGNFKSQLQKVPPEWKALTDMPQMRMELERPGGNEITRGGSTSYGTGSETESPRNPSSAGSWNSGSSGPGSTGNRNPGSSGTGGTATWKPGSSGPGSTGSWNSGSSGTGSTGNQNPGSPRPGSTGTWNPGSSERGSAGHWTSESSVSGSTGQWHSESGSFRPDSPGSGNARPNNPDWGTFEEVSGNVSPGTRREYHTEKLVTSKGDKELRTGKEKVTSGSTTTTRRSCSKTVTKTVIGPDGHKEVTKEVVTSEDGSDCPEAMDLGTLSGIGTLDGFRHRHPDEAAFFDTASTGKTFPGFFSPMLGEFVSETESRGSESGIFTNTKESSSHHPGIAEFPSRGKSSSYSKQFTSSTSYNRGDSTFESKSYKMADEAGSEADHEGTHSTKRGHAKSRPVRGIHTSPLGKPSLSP
T2 sequence (P02675 31-491 partner): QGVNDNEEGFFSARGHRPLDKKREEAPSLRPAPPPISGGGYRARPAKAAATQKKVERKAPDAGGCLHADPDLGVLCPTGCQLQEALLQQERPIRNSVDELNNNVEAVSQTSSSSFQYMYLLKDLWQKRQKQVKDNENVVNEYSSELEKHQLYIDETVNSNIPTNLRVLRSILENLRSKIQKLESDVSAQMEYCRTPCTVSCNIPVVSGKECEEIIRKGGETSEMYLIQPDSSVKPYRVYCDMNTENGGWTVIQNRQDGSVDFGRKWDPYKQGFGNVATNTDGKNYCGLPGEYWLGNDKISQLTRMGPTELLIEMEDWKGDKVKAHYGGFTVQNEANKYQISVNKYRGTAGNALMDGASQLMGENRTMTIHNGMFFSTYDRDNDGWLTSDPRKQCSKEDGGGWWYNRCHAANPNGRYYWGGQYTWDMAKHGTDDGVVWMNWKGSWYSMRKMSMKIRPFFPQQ
T2 sequence (P02679 27-437 isoform P02679-2 partner limits assumed): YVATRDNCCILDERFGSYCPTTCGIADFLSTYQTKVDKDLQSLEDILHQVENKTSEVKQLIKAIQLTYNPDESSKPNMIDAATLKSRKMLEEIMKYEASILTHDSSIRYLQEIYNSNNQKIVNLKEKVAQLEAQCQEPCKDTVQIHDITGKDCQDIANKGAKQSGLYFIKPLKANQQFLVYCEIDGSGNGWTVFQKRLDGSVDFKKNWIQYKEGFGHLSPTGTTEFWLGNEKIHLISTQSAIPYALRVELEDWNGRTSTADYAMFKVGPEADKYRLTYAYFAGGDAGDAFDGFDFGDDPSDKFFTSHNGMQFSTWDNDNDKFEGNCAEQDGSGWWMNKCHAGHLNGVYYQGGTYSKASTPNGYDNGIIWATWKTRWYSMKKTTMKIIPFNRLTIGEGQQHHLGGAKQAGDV
Experimental: as §1

thymosin β4
non-covalent interaction with Aα392-610 sub-fragment (ELISA) (Aα392-610 sub-fragment; non-activated factor XIII or without it): no significant non-covalent interaction | incorporation into immobilized Aα392-610 sub-fragment (ELISA) (Aα392-610 sub-fragment; presence of factor XIIIa): incorporated effectively | Km (Aα392-610 sub-fragment; thrombin-activated factor XIIIa, Lineweaver-Burk plot, read-out: apparent Michaelis constant (Km) for incorporation into the Aα392-610 sub-fragment): 8.6 ± 3.7 µM | factor XIIIa-mediated incorporation into immobilized fibrinogen (ELISA signal) (fibrinogen; factor XIII activated by CaCl2): the signal substantially increased | non-covalent interaction with immobilized fibrinogen (ELISA signal) (fibrinogen; thymosin β4 150 μg/mL (30 μm), absence of factor XIII or non-activated factor XIII): no significant non-covalent interaction
